Experimental data from patent CN114149501A (TENCEL BIOMEDICINE CO LTD, dated 2022).

How the values were obtained:
[1] = target: T1, 人源重组C5蛋白 (Sino Biologica, Cat#13416-H18H) (human, UniProt P01031 19-1676); experiment: BLI (Octet), antibody on AHC sensor, C5 0.4688-30 nM; run no. 2
T1 construct: also called 人源C5蛋白; 全长C5

[2] = target: T1, 人源重组C5蛋白 (Sino Biologica, …); experiment: BLI (Octet), antibody on AHC sensor, C5 0.4688-30 nM; run no. 3
[3] = target: T1, 人源重组C5蛋白 (Sino Biologica, …); experiment: BLI (Octet), antibody on AHC sensor, C5 0.4688-30 nM; run no. 4
[4] = target: T1, 人源重组C5蛋白 (Sino Biologica, …); experiment: BLI (Octet), antibody on AHC sensor, C5 0.4688-30 nM; run no. 5
[5] = target: T1, 人源重组C5蛋白 (Sino Biologica, …); experiment: BLI (Octet), antibody on AHC sensor, C5 0.4688-30 nM; run no. 1

T1 sequence (P01031 19-1676 limits assumed): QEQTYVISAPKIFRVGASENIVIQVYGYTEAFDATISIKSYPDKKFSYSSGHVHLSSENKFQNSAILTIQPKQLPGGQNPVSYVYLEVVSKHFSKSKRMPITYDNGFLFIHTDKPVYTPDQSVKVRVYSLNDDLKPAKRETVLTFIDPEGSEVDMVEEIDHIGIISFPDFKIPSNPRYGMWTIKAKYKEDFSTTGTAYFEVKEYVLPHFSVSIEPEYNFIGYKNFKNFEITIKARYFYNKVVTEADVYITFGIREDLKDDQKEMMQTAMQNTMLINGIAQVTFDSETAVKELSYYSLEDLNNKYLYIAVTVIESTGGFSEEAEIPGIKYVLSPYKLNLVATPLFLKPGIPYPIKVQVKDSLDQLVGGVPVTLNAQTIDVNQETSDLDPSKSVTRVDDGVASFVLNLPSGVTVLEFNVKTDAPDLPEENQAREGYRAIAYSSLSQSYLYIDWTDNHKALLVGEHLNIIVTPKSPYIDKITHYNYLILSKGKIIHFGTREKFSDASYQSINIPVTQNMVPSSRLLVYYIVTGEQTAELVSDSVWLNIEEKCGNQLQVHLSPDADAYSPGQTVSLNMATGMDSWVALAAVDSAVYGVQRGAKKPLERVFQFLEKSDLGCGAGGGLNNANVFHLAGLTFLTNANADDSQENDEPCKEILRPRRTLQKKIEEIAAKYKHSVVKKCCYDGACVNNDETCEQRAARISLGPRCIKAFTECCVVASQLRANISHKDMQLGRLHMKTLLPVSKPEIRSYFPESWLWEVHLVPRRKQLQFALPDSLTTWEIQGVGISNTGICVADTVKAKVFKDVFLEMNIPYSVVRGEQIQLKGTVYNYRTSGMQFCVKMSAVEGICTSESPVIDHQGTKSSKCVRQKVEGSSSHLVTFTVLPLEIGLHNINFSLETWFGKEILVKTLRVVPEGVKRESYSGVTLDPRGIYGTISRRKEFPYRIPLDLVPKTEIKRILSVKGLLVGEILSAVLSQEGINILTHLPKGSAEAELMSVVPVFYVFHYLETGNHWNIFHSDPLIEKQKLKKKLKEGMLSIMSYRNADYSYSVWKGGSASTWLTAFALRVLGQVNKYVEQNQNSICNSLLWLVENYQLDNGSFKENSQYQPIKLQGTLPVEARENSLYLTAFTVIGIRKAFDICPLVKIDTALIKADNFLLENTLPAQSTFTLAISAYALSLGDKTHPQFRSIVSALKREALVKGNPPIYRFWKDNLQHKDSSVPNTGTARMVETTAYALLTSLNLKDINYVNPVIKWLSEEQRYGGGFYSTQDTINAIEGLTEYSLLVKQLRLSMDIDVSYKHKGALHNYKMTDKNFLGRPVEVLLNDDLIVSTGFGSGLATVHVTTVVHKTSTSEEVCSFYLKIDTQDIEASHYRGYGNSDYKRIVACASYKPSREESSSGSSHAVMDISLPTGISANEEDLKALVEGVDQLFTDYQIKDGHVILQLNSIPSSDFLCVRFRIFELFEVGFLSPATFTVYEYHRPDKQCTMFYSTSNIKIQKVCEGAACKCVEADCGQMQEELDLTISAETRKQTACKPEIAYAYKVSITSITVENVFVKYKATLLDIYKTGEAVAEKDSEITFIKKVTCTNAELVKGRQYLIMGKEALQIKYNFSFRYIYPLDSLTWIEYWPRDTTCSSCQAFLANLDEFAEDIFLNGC

B1: CR3#75/IgG4 (antibody, V domains shown)
VH: EVQLVQSGAEVKKPGATVKISCKVSGYTFTDYYTHWVQQAPGKGLEWMGLVDPEGGETIYAEKFQGRVTITADASTDTAYMELSSLRSEDTAVYYCATGSFLAAPDYWGQGTTVTVSS
VL: not shown
notes: also called 抗C5抗体CR3#75; S125(38#)-3
Question: For B1, which Kd [1] is on record?
Answer: The Kd was 0.614 nM.

Question: What about the koff [1] of the same binder?
Answer: The koff was 0.0003 s⁻¹.

Question: What about the kon [1] of the same binder?
Answer: The kon was 488000 M⁻¹ s⁻¹.

Question: And the Kd [2]?
Answer: Its Kd is 0.616 nM.

Question: And the koff [2]?
Answer: The koff was 0.000279 s⁻¹.

Question: What about the kon [2] of the same binder?
Answer: The kon was 452000 M⁻¹ s⁻¹.

Question: What about the Kd [3] of the same binder?
Answer: Its Kd is 0.722 nM.

Question: And the koff [3]?
Answer: The koff was 0.000307 s⁻¹.

Question: What about the kon [3] of the same binder?
Answer: The kon was 425000 M⁻¹ s⁻¹.

Question: What about the Kd [4] of the same binder?
Answer: Its Kd is 0.72 nM.

Question: And the koff [4]?
Answer: The koff was 0.000309 s⁻¹.

Question: And the kon [4]?
Answer: The kon was 429000 M⁻¹ s⁻¹.

Question: What about the Kd [5] of the same binder?
Answer: The Kd was 0.366 nM.

Question: What about the koff [5] of the same binder?
Answer: Its koff is 0.000151 s⁻¹.

Question: And the kon [5]?
Answer: Its kon is 413000 M⁻¹ s⁻¹.
